Reference: US20240125793A1

How the values were obtained:
[1] = target: MCC-I-E^k (soluble I-Ek exchanged with the MCC peptide) (murine) (UniProt P04224); assay: SPR (Biacore T100), refolded TCR over peptide-exchanged biotinylated I-Ek on SA chip, equilibrium
5c3-I-E^k (murine) = 5c3-I-E^k (murine) (UniProt P04224); assay: as above
5c1-I-E^k (murine) [2] = target: 5c1-I-E^k (murine) (UniProt P04224); assay: as above
[3] = target: MCC-I-E^k (soluble I-Ek exchanged with the MCC peptide) (murine) (UniProt P04224); assay: cell-based or functional assay
5c1-I-E^k (murine) [4] = target: 5c1-I-E^k (murine) (UniProt P04224); assay: cell-based or functional assay

- Kd [1]: 41 µM
- Kd (5c3-I-E^k (murine)): 62 µM
- Kd (5c1-I-E^k (murine) [2]): 115 µM
- signaling potency (EC50) [3]: 0.0084 µM
- signaling potency (EC50) (5c1-I-E^k (murine) [4]): 1.5 µM
Substance: 5cc7 TCR
